Changes are numbered by the printed parent chain.
Columns and labels:
[1] = target: ADDL fibril preparation (Aβ1-42 fibrils made in 10 mM hydrochloric acid); experiment: solution equilibrium titration; free IgG by ELISA; GraFit
[2] = target: T1, biotinylated ADDLs (bADDLs), oligomers prepared from N-terminal biotinylated amyloid β1-42 (N-terminal biotin); experiment: BIACORE, bADDL as antigen, IgG1 #1
T1 construct: also called high molecular weight 10% bADDL

[3] = target: T1, biotinylated ADDLs (bADDLs), oligomers …; experiment: titration ELISA on streptavidin-captured 10% biotinylated ADDL
[4] = target: T1, biotinylated ADDLs (bADDLs), oligomers …; experiment: BIACORE, bADDL as antigen, Fab
[5] = target: T1, biotinylated ADDLs (bADDLs), oligomers …; experiment: BIACORE, bADDL as antigen, IgG1 #2
[6] = target: amyloid β1-42 peptide (Aβ1-42); experiment: cell-based or functional assay
[7] = target: T2, Aβ-derived diffusible ligands (synthetic ADDLs), soluble oligomers of amyloid β1-42; experiment: solution equilibrium titration; free IgG by ELISA; GraFit
T2 construct: number of copies varies (trimer, tetramer, 12-24 mer)

[8] = target: T3, amyloid beta (1-40) peptide; experiment: as above
T3 construct: Residues 1-40 counted on the Aβ1-42 entry; used as monomer-like control; also called Aβ1-40; Aβ1-40 monomer

[9] = target: T4, tetramers of ADDLs (multi-dimensional conformation of soluble amyloid β1-42 oligomers, as defined by SDS-PAGE) (UniProt P05067 672-713); experiment: recognition of ADDL species defined by SDS-PAGE (see FIG. 3)
T4 construct: domain: amyloid β1-42; It is a species within the ADDL preparation

[10] = target: T5, trimers of ADDLs (multi-dimensional conformation of soluble amyloid β1-42 oligomers, as defined by SDS-PAGE) (UniProt P05067 672-713); experiment: as above
T5 construct: domain: amyloid β1-42; It is a species within the ADDL preparation

[11] = target: T6, higher molecular weight oligomers of the ADDL preparation; experiment: western immunoblot of ADDLs after SDS-PAGE (column DENATURED SPECIES IDENTIFIED: HMW ADDLs)
T6 construct: also called higher molecular weight material (12-24 mer)

[12] = target: T7, SEC Peak 1 fraction of ADDLs (large aggregates, >50 kDa); experiment: sandwich ELISA with polyclonal M90 as capture antibody; signal on SEC Peak 1 divided by signal on SEC Peak 2 of ADDLs
T7 construct: Size exclusion fraction of synthetic ADDLs; monomer, trimer, tetramer and 12-24 mers on SDS-PAGE

B1: murine anti-ADDL monoclonal antibody 3B3 (antibody, mouse IgG1, V domains shown)
VH: DVQLVESGGGLVQPGGSRKLSCAASGFTFSSFGMHWVRQAPEKGLEWVAYISRGSSTIYYADTVKGRFTISRDNPKNTLFLQMTSLRSEDTAMYYCARGITTALDYWGQGTSVTVSS
VL: DVLMTQTPLSLPVSLGDQASISCRSSQSIVHSNGNTYLEWYLQKPGQSPKLLIYKASNRFSGVPDRFSGSGSGTDFTLKISRVEAEDLGVYYCFQGSHVPPTFGGGTKLEIK
- Kd [1]: 7.21 nM

B2: affinity-matured humanized 20C2-1A, IgG1 (humanized A version) (antibody, V domains shown)
VH: QVTLKESGPALVKPTQTLTLTCTFSGFSLSTSGMGVGWIRQPPGKALEWLAHIWWDDDKSYNPSLKSRLTISKDTSKNQVVLTMTNMDPVDTATYYCARRQLGLRSIDAMDYWGQGTTVTVSS
VL: DVVMTQSPLSLPVTPGEPASISCRSSQSILHSNGNTYLEWYLQKPGQSPQLLIYKVSNRFSGVPDRFSGSGSGTDFTLKISRVEAEDVGVYYCFQASRVPLTFGQGTKLEIKR
notes: also called clone SJ-p2-60
- Kd [2]: 0.075 nM

B3: humanized 20C2, veneered, HCVR VenA IgG1 with veneered 20C2 LCVR Kappa (antibody, V domains shown)
VH: B2 VH with A10G, L11I, V12L, T15S, T19S, I39F, A46G, V81F, M84I
VL: B2 VL with T14S, P15L, E17D, V88L, A96G, R98L, Q105A, I111L
notes: also called 20C2 VenA
- binding result [3]: binds

B4: Fab fragment of affinity-matured humanized 20C2-18A (Fab, V domains shown)
VH: B2 VH
VL: B2 VL with F94M, A96S, R98F
- Kd [4]: 85 nM

B5: humanized 1F6, CDR grafted, IgG1/kappa (antibody, V domains shown)
VH: EVQLVESGGGLVQPGGSLRLSCAASGFTFSSFGMHWVRQAPGKGLEWVAYISSVSSTIYYADTVKGRFTISRDNSKNTLYLQMNSLRAEDTAVYYCARSGYGSSYGYGMDYWGQGTLVTVSS
VL: B2 VL with L30V, A96G, R98H
notes: also called 1F6 (humanized)
- binding result [3]: binds

B6: humanized 3B3, CDR grafted, IgG1/kappa (antibody, V domains shown)
VH: EVQLVESGGGLVQPGGSLRLSCAASGFTFSSFGMHWVRQAPGKGLEWVAYISRGSSTIYYADTVKGRFTISRDNAKNSLYLQMNSLRAEDTAVYYCARGITTALDYWGQGTLVTVSS
VL: B2 VL with L30V, V56A, A96G, R98H, L101P
notes: also called 3B3 (humanized)
- binding result [3]: binds

B7: humanized 4E2, CDR grafted, IgG1/kappa (antibody, V domains shown)
VH: QVTLKESGPALVKPTQTLTLTCTFSGFSLSTSGMGVGWIRQPPGKALEWLAHIWWDDDKYYNPSLKSQLTISKDTSKNQVVLTMTNMDPVDTATYYCARRSINSVVPEDYFDYWGQGTTVTVSS
VL: B2 VL with L30V, A96G, R98H
notes: also called 4E2 (humanized)
- binding result [3]: binds

B8: affinity-matured humanized 20C2-2A, IgG1 (humanized A version) (antibody, V domains shown)
VH: B2 VH
VL: B2 VL with S97T
notes: also called clone SJ-p1-18
- Kd [2]: 0.015 nM
- Kd [5]: 0.0003 nM

B9: humanized 2H4, CDR grafted, IgG1/kappa (antibody, V domains shown)
VH: EVQLVESGGGLVQPGGSLRLSCAASGFTFSSFGMHWVRQAPGKGLEWVAYIRSGSSTIYYADTVKGRFTISRDNSKNTLYLQMNSLRAEDTAVYYCARGGNYYGSSRFAYWGQGTLVTVSS
VL: DIQMTQSPSSLSASVGDRVTITCKASQDINSYLSWFQQKPGKAPKTLIYRANRFVDGVPSRFSGSGSGTDYTLTISSLQPEDFATYFCLQYDEFPLTFGGGTKVEIKR
notes: also called 2H4 (humanized)
- binding result [3]: binds

B10: humanized 26D6, CDR grafted, IgG1/kappa (antibody)
heavy: not shown
light: DVVMTQSPLSLPVTPGEPASISCRASQSIVHSNGNTYLEWYLQKPGQSPQLLIYRVSNRFSGVPDRFSGSGSGTDFTLKISRVEAEDVGVYYCFQVTHVPLTFGQGTKLEIKRTVAAPSVFIFPPSDEQLKSGTASVVCLLNNFYPREAKVQWKVDNALQSGNSQESVTEQDSKDSTYSLSSTLTLSKADYEKHKVYACEVTHQGLSSPVTKSFNRGEC
- binding result [3]: binds

B11: humanized 26D6, CDR grafted, IgG2m4/kappa (antibody)
heavy: QVTLKESGPTLVKPTQTLTLTCTFSGFSLSTSGMGVSWIRQPPGKALEWLAHIYWDDDKQYNPSLKSRLTITKDTSKNQVVLTMTNMDPVDTATYYCARRASSSRYDDQFDYWGQGTLVPVSSASTKGPSVFPLAPCSRSTSESTAALGCLVKDYFPEPVTVSWNSGALTSGVHTFPAVLQSSGLYSLSSVVTVTSSNFGTQTYTCNVDHKPSNTKVDKTVERKCCVECPPCPAPPVAGPSVFLFPPKPKDTLMISRTPEVTCVVVDVSQEDPEVQFNWYVDGVEVHNAKTKPREEQFNSTFRVVSVLTVLHQDWLNGKEYKCKVSNKGLPSSIEKTISKTKGQPREPQVYTLPPSREEMTKNQVSLTCLVKGFYPSDIAVEWESNGQPENNYKTTPPMLDSDGSFFLYSKLTVDKSRWQQGNVFSCSVMHEALHNHYTQKSLSLSPGK
light: B10 light
- binding result [3]: binds

B12: murine anti-ADDL monoclonal antibody 2B4 (antibody, mouse IgG2b, V domains shown)
VH: not shown
VL: DVVMTQTPLSLPVSLGDQASISCRSSQSLVHSNGNTYLHWYLQKPGQSPKLLIYKVSNRFFGVPDRFSGSGSGTDFTLKISRVEAEDLGVYFCSQTTYVPLTFGAGTKLELK
- IC50 (read off the curve) [6]: ~100 nM
- Kd [7]: 2.09 nM
- Kd [1]: 10.5 nM
- Kd [8]: 27.6 nM

B13: murine anti-ADDL monoclonal antibody 2A10 (antibody, mouse IgG1, V domains shown)
VH: QVTLKESGPGILKPSQTLSLTCSFSGFSLSTSGMGVGWIRQPSGKGLEWLAHIWWDDDKYYNPSLKSQLTISKDTSRNQVFLKITSVDTADTATYYCARRSISTLVPEDYFDYWGQGTTLTVSS
VL: B1 VL with A56V, P101L, G105A, I111L
- binding result [9]: binds
- binding result [10]: binds
- Kd [1]: 6.72 nM
- binding result [11]: binds
- Peak 1/Peak 2 Ratio (ELISA) [12]: 20

B14: murine anti-ADDL monoclonal antibody 1F4 (antibody, mouse IgG1, V domains shown)
VH: B5 VH with E1D, L18R, R19K, G42E, S75P, Y80F, N84T, A88S, V93M
VL: B1 VL with A56V, P101L, G105A, I111L
- Kd [7]: 9.24 nM
- Kd [1]: 12.5 nM

B15: murine anti-ADDL monoclonal antibody 5F10 (antibody, V domains shown)
VH: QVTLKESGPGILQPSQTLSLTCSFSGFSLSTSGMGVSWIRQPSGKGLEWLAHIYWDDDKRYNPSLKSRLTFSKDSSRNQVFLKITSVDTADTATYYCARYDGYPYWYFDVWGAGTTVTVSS
VL: B12 VL with D1V, V3L, F61S, S94F, T96S, Y98H
- Kd [1]: 28.9 nM
- Peak 1/Peak 2 Ratio (ELISA) [12]: 18

B16: murine anti-ADDL monoclonal antibody 4C2 (antibody, mouse IgG1, V domains shown)
VH: B13 VH with S103T, L105V, D112A
VL: B1 VL with T7S, A56V, P101L, G105A, I111L
- Kd [1]: 19.2 nM
- binding result [11]: binds
- Peak 1/Peak 2 Ratio (ELISA) [12]: 18

B17: murine anti-ADDL monoclonal antibody 2D6 (antibody, mouse IgG1, V domains shown)
VH: B13 VH with L105V, V106I, T119I
VL: B1 VL with P12T, A56V, P101L, G105A, I111L
- Kd [1]: 14.4 nM
- Peak 1/Peak 2 Ratio (ELISA) [12]: 19

From patent US20110159013A1 (MERCK, published 2011)
